Assay [1] has as its target T1, human SIRP-α v1 (human, UniProt P78324 31-149).
T1 construct: also called Human v1; Human V1
Description: SPR. In short, it runs like this:
(§1)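 Runs took place at 25° C in PBS pH 7.4 containing 0.01% Tween-20 on a ProteOn XPR36 biosensor, with purified antibodies either amine-coupled to a GLC chip or captured through biotinylated Protein A on an NLC chip. SIRP analytes went in by one-shot kinetic injection at nominal concentrations based on A280 absorbance. Apparent rate constants came from a global simple Langmuir fit of double-referenced data, and KD was calculated as kd/ka.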
Background: SPR reads the build-up and loss of mass on a sensor chip optically.

Assay [2] concerns the target T2, human SIRP-α v2 (human).
T2 construct: also called Human v2; Human V2
The assay can be described thus: SPR. In short, it runs like this:
as §1

Assay [3] has as its target T1, human SIRP-α v1. Description: SPR. In short, it runs like this: as §1
This is another data set of the same source.

Assay [4] addresses T2, human SIRP-α v2. Description: SPR. In short, it runs like this: as §1
This is another data set of the same source.

The target of assay [5] is T3, cynomolgus SIRP-α (cynomolgus monkey, UniProt Q5TFQ8 30-148 (human entry), limits assumed).
T3 construct: also called cyno1
T3 chain: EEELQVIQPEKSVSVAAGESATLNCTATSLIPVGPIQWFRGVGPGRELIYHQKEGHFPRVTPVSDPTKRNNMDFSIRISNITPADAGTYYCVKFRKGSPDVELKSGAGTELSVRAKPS
Description: SPR. In a few lines: as §1

Assay [6] addresses T4, BALBc mouse SIRP-α (mouse (BALB/c strain)).
T4 chain: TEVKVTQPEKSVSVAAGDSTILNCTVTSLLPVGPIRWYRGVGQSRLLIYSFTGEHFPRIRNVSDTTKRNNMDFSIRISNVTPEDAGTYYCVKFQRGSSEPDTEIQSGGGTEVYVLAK
Description: SPR. In short, it runs like this: as §1

Assay [7] has as its target T5, human SIRPγ isoform 1 (human, UniProt Q9P1W8 29-147).
T5 construct: also called Gamma; Human SIRPg
The assay can be described thus: SPR. In a few lines:
as §1

Assay [8] concerns the target T3, cynomolgus SIRP-α. Description: SPR Koff +/-. In a few lines: as §1
Assay [9] deals with T6, mouse 129 SIRP-α (mouse (129 strain), UniProt P97797 32-150).
T6 construct: also called m129
T6 chain: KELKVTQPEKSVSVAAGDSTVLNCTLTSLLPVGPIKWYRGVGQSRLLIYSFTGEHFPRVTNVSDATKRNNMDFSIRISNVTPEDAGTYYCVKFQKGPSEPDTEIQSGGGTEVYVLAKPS
The assay can be described thus: SPR Koff +/-. In short, it runs like this: as §1

Assay [10] addresses T7, human SIRPβ isoform 1 (human, UniProt O00241 30-148).
T7 construct: also called Beta; Human SIRPb
The assay can be described thus: SPR Koff +/-. In short, it runs like this:
as §1

Assay [11] concerns the target T5, human SIRPγ isoform 1. Description: SPR Koff +/-. In short, it runs like this: as §1

T5 sequence (Q9P1W8 29-147 limits assumed): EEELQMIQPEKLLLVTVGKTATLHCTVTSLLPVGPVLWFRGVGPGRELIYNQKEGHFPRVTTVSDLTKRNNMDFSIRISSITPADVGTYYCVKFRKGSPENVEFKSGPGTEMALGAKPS
T7 sequence (O00241 30-148 limits assumed): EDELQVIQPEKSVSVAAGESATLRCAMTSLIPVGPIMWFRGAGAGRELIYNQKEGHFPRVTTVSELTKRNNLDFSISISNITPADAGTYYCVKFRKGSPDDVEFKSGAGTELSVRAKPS
T2 sequence (chain, as listed by the source limits assumed): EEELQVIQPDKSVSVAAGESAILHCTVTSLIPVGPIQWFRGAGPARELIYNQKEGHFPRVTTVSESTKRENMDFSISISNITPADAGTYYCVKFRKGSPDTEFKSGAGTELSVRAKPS
T1 sequence (P78324 31-149 limits assumed): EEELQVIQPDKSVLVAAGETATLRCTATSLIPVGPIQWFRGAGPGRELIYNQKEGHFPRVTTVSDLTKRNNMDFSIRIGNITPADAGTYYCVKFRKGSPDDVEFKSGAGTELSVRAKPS

B1: antibody 21 (antibody, V domains shown)
VH: DVQLVESGGGVVRPGESLRLSCAASGFTFSSNAMSWVRQAPGKGLEWLAGISAGGSDTYYPASVKGRFTISRDNSKNTLYLQMNTLTAEDTAVYYCARETWNHLFDYWGLGTLVTVSS
VL: ALTQPASVSANPGETVKIACSGGDYYSYYYGWYQQKAPGSALVTVIYSDDKRPSDIPSRFSGSASGSTATLTITGVRAEDEAVYYCGGYDYSTYANAFGAGTTLTVL
notes: also called AB21; S21
The term Kd denotes the constant that tells how readily two partners part at equilibrium. A high value points to weaker binding. By koff is commonly meant the first-order rate constant of dissociation. Read a high koff as a short-lived complex. Consider B1, for which the Kd in assay [1] and in assay [2] was below 0.001 nM in each case. The koff in [3] worked out at 0.000707 s⁻¹; in assay [4], 0.00192 s⁻¹; in [5], 0.00229 s⁻¹; in [6] it was 0.00241 s⁻¹; in assay [7], 0.000902 s⁻¹.

B2: antibody 45 (antibody, V domains shown)
VH: AVTLDESGGGLQTPGGALSLVCKASGFTFSSYAMGWVRQAPGKGLEWVAGIDDDGSTANYGPAVKGRATISRDNGQSTVRLQLNNPRAEDSGTYFCAKASVTGWSAHISGRLDTWGHGTEVIVSS
VL: ALTQPASVSANPGETVKITCSGGGIYYYGWYQQKSPGSAPVTLIYENDKRPSDIPSRFSGSTSGSTNTFTITGVQAEDEAVYYCGGYDSNTTSGIFGAGTTLTVL
notes: also called S45; AB45
B2: the binding result in assay [8] was “no binding”.

B3: antibody 137 (antibody, V domains shown)
VH: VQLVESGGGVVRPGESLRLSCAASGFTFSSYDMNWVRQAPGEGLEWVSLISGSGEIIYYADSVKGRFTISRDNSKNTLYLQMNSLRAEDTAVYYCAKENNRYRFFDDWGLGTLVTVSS
VL: ETVLTQSPGTLTLSPGERATLTCRASQSVYTYLAWYQEKPGQAPRLLIYGASSRATGIPDRFSGSGSGTVFTLTISSLQSEDFAVYYCQQYYDRPPLTFGGGTKVEIK
notes: also called S137
With B3, the equilibrium dissociation constant (Kd) in [1] turned out to be 0.774 nM; in assay [2], 3.14 nM. Moreover, the binding result in assay [8], in assay [9] and in [10] was “binds” each time.

B4: antibody 209 (antibody, V domains shown)
VH: DVQLVESGGAVVRPGESLRLSCKASGFTFTNFAMSWVRQAPGEGLEWVSGISGSDDTTYYADSVKGRFTISRDNSESTLYLQMNSLRAEDTAVYYCVKDSTVSWNTFFDYWGLGTLVTVSS
VL: ALTQPASVSANLGGTVKITCSGGYGSDDGSSSYYGWYQQKSPGSAPVILIYWDDKRPSDIPSRFSGSTSGSTTTLTITGVQAEDEAVYFCGTYDTSSGAIFGAGTTLTVL
notes: also called S209
As to B4, the dissociation constant (Kd) in assay [1] was 0.171 nM; in [2], 5.01 nM. For the same molecule, the binding result in assay [8] and in assay [11] was “no binding” in each case.

B5: antibody 122 (antibody, V domains shown)
VH: VQLVESGGGVVRPGESLRLSCAASGFRFSNFAMTWVRQAPGEGLEWVSTIGSGDTYYADSVKGRFTISRDNSKNTLYLQMNSLRAEDTAVYYCAKDSTVSWSGDFFDYWGLGTLVTVSS
VL: EIVLTQSPATLSVSPGERATFSCRASQNVKNDLAWYQQRPGQAPRLLIYAARIRETGIPERFSGSGSGTEFTLTITSLQSEDFAVYYCQQYYDWPPFTFGGGTKVEIK
notes: also called S122
Turning to B5, the values for the dissociation constant (Kd) in assay [1] and in assay [2] were 0.214 nM and 0.0778 nM, respectively. In addition, the binding result in [8] is “binds”; in assay [9], “no binding”; in [10] it was “binds”; in assay [11] it was “binds”.

B6: antibody 115 (antibody, V domains shown)
VH: DVQLVESGGGVVRPGESLRLSCAASGFSFSSYAMNWVRQAPGEGLEWVSRINSGGGGTDYAESVKGRFTISRDNSENTLYLQMNSLRAEDTAVYYCAKQYDWNSFFDYWGLGALVTVSS
VL: ETVLTQSPATLSVSPGERATLSCRASQTVGSKLAWHQQKPGQAPRLLIYDATNRATGISDRFSGSGSGTDFTLTISSLQTEDSAVYYCQQYYYWPPYRFGGGTKVEIK
notes: also called S115
With B6, the Kd in assay [1] was 0.0177 nM; in assay [2], 0.015 nM. Moreover, the binding result in assay [8] is on record as “binds”; in [9], “no binding”; in assay [10], “binds”; in assay [11], “binds”.

B7: antibody 117 (antibody, V domains shown)
VH: VQLVESGGGVVRPGESLRLSCAASGFSFSSYAMNWVRQAPGEGLEWVSRINSGGGGTDYAESVKGRFTISRDNSENTLYLQMNSLRAEDTAVYYCAKQYDWNGFFDYWGLGALVTVSS
VL: ETVLTQSPATLSVSPGERATLSCRASQTVGSKLAWHQQKPGQAPRLLIYDATNRATGIPDRFSGSGSGTDFTLTISSLQTEDSAVYYCQQYYYWPPYRFGGGTKVEIK
notes: also called S117
The molecule B7 displayed an equilibrium dissociation constant (Kd) in assay [1] of 0.0312 nM. Further, the binding result in assay [8] is “binds”; in assay [9] it was “no binding”; in [10] it was “binds”; in [11], “binds”.

B8: antibody 116 (antibody, V domains shown)
VH: VQLVESGGGVVRPGESLRLSCAASGFSFSSYAMNWVRQAPGEGLEWVSRINSGGGGTDYAESVKGRFTISRDNSENTLYLQMNSLRAEDTAVYYCAKQYDWNSFFDYWGLGALVTVSS
VL: ETVLTQSPATLSVSPGERATLSCRASQTVGSKLAWHQQKPGQAPRLLIYDATNRATGISDRFSGSRSGTDFTLTISSLQTEDSAVYYCQQYYYWPPYRFGGGTKVEIK
notes: also called S116
In the case of B8, the Kd in assay [1] was determined as 0.11 nM; in [2] it was 0.299 nM. Besides, the binding result is recorded as “binds” in assay [8], “no binding” in assay [9], “binds” in [10] and “binds” in assay [11].

B9: antibody 118 (antibody, V domains shown)
VH: VQLVESGGGVVRPGESLRLSCAASGFSFSSYAMNWVRQAPGEGLEWVSRINSGGGGTDYAESVKGRFTISRDNSENTLYLQMNSLRAEDTAVYYCAKQYDWNGFFDYWGLGALVTVSS
VL: ETVLTQSPATLSVSPGERATLSCRASQTVGSKLAWHQQKPGQAPRLLIYDASRRATGIPDRFSGSGSGTDFTLTISSLQTEDSAVYYCQQYYYWPPYRFGGGTKVEIK
notes: also called S118
As to B9, in assay [1], binding was put at a Kd of 0.0403 nM. For the same molecule, the binding result in assay [8] was “binds”; in [9] it was “no binding”; in assay [10], “binds”; in assay [11], “binds”.

B10: antibody 25 (antibody, V domains shown)
VH: DVQLVESGGGVVRPGESLRLSCEASGFTFSSNAMSWVRQAPGKGLEWVAGISSGSDTYYGDSVKGRLTISRDNSKNILYLQMNSLTAEDTAVYYCARETWNHLFDYWGLGTLVTVSS
VL: ALTQPASVSANPGETVEITCSGGSYSSYYYAWYQQKSPGSAPVTLIYSDDKRPSNIPSRFSGSASGSTATLTITGVRAEDEAVYFCGGYDQSSYTNPFGAGTTLTVL
notes: also called AB25; S25
Turning to B10, the dissociation constant Kd in [1] and in assay [2] was below 0.001 nM in each case. Further, the koff in assay [3] stood at 0.000165 s⁻¹; in assay [4] it was 0.000353 s⁻¹; in assay [5], 0.000394 s⁻¹; in assay [6], 0.00178 s⁻¹; in [7] it was 0.000203 s⁻¹.

B11: antibody 149 (antibody, V domains shown)
VH: DVQLVESGGGVVRPGESLRLSCAASGFTFSNFAMNWVRQAPGEGLEWVSLISVTATTYYADSVKGRFTISRDNSKNTLYLQMNSLRAEDTAVYYCAKVTWNNLFDYWGLGTLVTVSS
VL: EIVLTQSPGTLSLSPGERATLSCRASQPIDSYLAWYQQKPGQAPRLLIYNTVTRATGIPDRFSGSGSGTDFTLTINRLEPEDFAVYYCQHQYDWPPYIFGGGTKVEIK
notes: also called S149
Regarding B11, the Kd in assay [1] turned out to be 0.873 nM; in assay [2], 0.238 nM. Moreover, the binding result in [9] and in assay [11] was “no binding” throughout.

B12: antibody 161 (antibody, V domains shown)
VH: DVQLVESGGGVVRPGESLRLSCAASGFTFSNFAMTWVRQAPGKGPEWVSLVSVTATTYYADSVKGRFTISRDNSKSTLYLQMNSLRAEDTAVYYCAKITWNNLFDYWGLGTLVTVSS
VL: EIVLTQSPGTLSLSPGERATLSCRASQTVGSKLAWYQQKPGQAPRLLIYDSSSRASGIPDRFSGSGSGTDFTLTISSLQSEDSAVYYCQQHNDWPPYTFGGGTKVEIK
notes: also called S161
B12: the Kd in assay [1] is 1.03 nM; in assay [2], 0.127 nM. For the same molecule, the binding result in assay [9] and in assay [11] was “no binding” in each case.

B13: antibody 174 (antibody, V domains shown)
VH: DVQLVESGGGVVRPGESLRLSCAASGFTFSDHDMSWVRQGPGEGLEWVAGISLRGGVTWYADSVKGRFTISRDNSKNTLYLRLFSLRTEDTAIYYCARESWNTFFDYWGLGTLVTVSS
VL: EIVLTQSPGTLSLSPGETATLSCRASQNVRSNLAWYQQKPGQAPRLLIYDASSRATGIPDRFSGSGSGTDFTLTISSLQSEDFAVYYCQQYGNGPPLTFGGGTKVEIK
notes: also called S174
B13: the binding result in [8], in [9], in [10] and in [11] was “no binding” in each case.
